We go through 15 molecules from patent publication US20200002421A1 (AbbVie / Abbott, published 2020).

To fix the notation:
T1: Human full length B7-H3 (human, UniProt Q5ZPR3 29-534)
T1 sequence: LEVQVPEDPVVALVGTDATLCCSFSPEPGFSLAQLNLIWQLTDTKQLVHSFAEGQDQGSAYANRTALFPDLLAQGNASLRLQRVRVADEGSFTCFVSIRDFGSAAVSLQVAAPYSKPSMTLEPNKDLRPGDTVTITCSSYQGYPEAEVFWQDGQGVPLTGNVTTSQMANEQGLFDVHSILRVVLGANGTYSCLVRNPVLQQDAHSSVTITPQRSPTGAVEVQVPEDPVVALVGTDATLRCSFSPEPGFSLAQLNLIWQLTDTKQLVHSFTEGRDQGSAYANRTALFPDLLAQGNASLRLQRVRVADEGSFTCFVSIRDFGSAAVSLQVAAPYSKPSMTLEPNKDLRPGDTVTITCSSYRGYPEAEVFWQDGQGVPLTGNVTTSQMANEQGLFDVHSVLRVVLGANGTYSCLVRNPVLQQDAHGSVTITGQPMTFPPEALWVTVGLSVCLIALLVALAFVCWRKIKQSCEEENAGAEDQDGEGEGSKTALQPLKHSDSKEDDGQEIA

B1: huAb3v2.5-CZ (antibody, human IgG1, kappa, L234A L235A, V domains shown)
VH: EVQLVQSGAEVKKPGSSVKVSCKASGYTFSSYWMHWVRQAPGQGLEWIGLIHPESGSTNYNEMFKNRATLTVDRSTSTAYMELSSLRSEDTAVYYCAGGGRLYFDYWGQGTTVTVSS
VL: DIVMTQSPLSLPVTPGEPASISCRSSQSLVHSNRDTYLRWYLQKPGQSPQLLIYKVSNRFSGVPDRFSGSGSGTDFTLKISRVEAEDVGVYYCSQSTHVPYTFGGGTKVEIKR
modifications: synthon CZ on interchain Cys
B2: huAb3v2.5-TX (antibody, human IgG1, kappa, L234A L235A, V domains shown)
VH: EVQLVQSGAEVKKPGSSVKVSCKASGYTFSSYWMHWVRQAPGQGLEWIGLIHPESGSTNYNEMFKNRATLTVDRSTSTAYMELSSLRSEDTAVYYCAGGGRLYFDYWGQGTTVTVSS
VL: DIVMTQSPLSLPVTPGEPASISCRSSQSLVHSNRDTYLRWYLQKPGQSPQLLIYKVSNRFSGVPDRFSGSGSGTDFTLKISRVEAEDVGVYYCSQSTHVPYTFGGGTKVEIKR
modifications: synthon TX on interchain Cys
B3: huAb3v2.5-LB (antibody, human IgG1, kappa, L234A L235A, V domains shown)
VH: EVQLVQSGAEVKKPGSSVKVSCKASGYTFSSYWMHWVRQAPGQGLEWIGLIHPESGSTNYNEMFKNRATLTVDRSTSTAYMELSSLRSEDTAVYYCAGGGRLYFDYWGQGTTVTVSS
VL: DIVMTQSPLSLPVTPGEPASISCRSSQSLVHSNRDTYLRWYLQKPGQSPQLLIYKVSNRFSGVPDRFSGSGSGTDFTLKISRVEAEDVGVYYCSQSTHVPYTFGGGTKVEIKR
modifications: synthon LB on interchain Cys
B4: huAb3v2.5-TV (antibody, human IgG1, kappa, L234A L235A, V domains shown)
VH: EVQLVQSGAEVKKPGSSVKVSCKASGYTFSSYWMHWVRQAPGQGLEWIGLIHPESGSTNYNEMFKNRATLTVDRSTSTAYMELSSLRSEDTAVYYCAGGGRLYFDYWGQGTTVTVSS
VL: DIVMTQSPLSLPVTPGEPASISCRSSQSLVHSNRDTYLRWYLQKPGQSPQLLIYKVSNRFSGVPDRFSGSGSGTDFTLKISRVEAEDVGVYYCSQSTHVPYTFGGGTKVEIKR
modifications: synthon TV on interchain Cys
B5: huAb3v2.5-YY (antibody, human IgG1, kappa, L234A L235A, V domains shown)
VH: EVQLVQSGAEVKKPGSSVKVSCKASGYTFSSYWMHWVRQAPGQGLEWIGLIHPESGSTNYNEMFKNRATLTVDRSTSTAYMELSSLRSEDTAVYYCAGGGRLYFDYWGQGTTVTVSS
VL: DIVMTQSPLSLPVTPGEPASISCRSSQSLVHSNRDTYLRWYLQKPGQSPQLLIYKVSNRFSGVPDRFSGSGSGTDFTLKISRVEAEDVGVYYCSQSTHVPYTFGGGTKVEIKR
modifications: synthon YY on interchain Cys
B6: huAb3v2.5-AAA (antibody, human IgG1, kappa, L234A L235A, V domains shown)
VH: EVQLVQSGAEVKKPGSSVKVSCKASGYTFSSYWMHWVRQAPGQGLEWIGLIHPESGSTNYNEMFKNRATLTVDRSTSTAYMELSSLRSEDTAVYYCAGGGRLYFDYWGQGTTVTVSS
VL: DIVMTQSPLSLPVTPGEPASISCRSSQSLVHSNRDTYLRWYLQKPGQSPQLLIYKVSNRFSGVPDRFSGSGSGTDFTLKISRVEAEDVGVYYCSQSTHVPYTFGGGTKVEIKR
modifications: synthon AAA on interchain Cys
B7: huAb3v2.5-AAD (antibody, human IgG1, kappa, L234A L235A, V domains shown)
VH: EVQLVQSGAEVKKPGSSVKVSCKASGYTFSSYWMHWVRQAPGQGLEWIGLIHPESGSTNYNEMFKNRATLTVDRSTSTAYMELSSLRSEDTAVYYCAGGGRLYFDYWGQGTTVTVSS
VL: DIVMTQSPLSLPVTPGEPASISCRSSQSLVHSNRDTYLRWYLQKPGQSPQLLIYKVSNRFSGVPDRFSGSGSGTDFTLKISRVEAEDVGVYYCSQSTHVPYTFGGGTKVEIKR
modifications: synthon AAD on interchain Cys
B8: huAb3v2.5-WD (antibody, human IgG1, kappa, L234A L235A, V domains shown)
VH: EVQLVQSGAEVKKPGSSVKVSCKASGYTFSSYWMHWVRQAPGQGLEWIGLIHPESGSTNYNEMFKNRATLTVDRSTSTAYMELSSLRSEDTAVYYCAGGGRLYFDYWGQGTTVTVSS
VL: DIVMTQSPLSLPVTPGEPASISCRSSQSLVHSNRDTYLRWYLQKPGQSPQLLIYKVSNRFSGVPDRFSGSGSGTDFTLKISRVEAEDVGVYYCSQSTHVPYTFGGGTKVEIKR
modifications: synthon WD on interchain Cys
B9: huAb13v1-CZ (antibody, human IgG1, kappa, L234A L235A, V domains shown)
VH: EVQLQESGPGLVKPSETLSLTCAVTGYSITSGYSWHWIRQFPGNGLEWMGYIHSSGSTNYNPSLKSRISISRDTSKNQFFLKLSSVTAADTAVYYCAGYDDYFEYWGQGTTVTVSS
VL: DIQMTQSPSSLSASVGDRVTITCKASQNVGFNVAWYQQKPGKSPKALIYSASYRYSGVPSRFSGSGSGTDFTLTISSLQPEDFAEYFCQQYNWYPFTFGQGTKLEIKR
modifications: synthon CZ on interchain Cys
B10: huAb13v1-XW (antibody, human IgG1, kappa, L234A L235A, V domains shown)
VH: EVQLQESGPGLVKPSETLSLTCAVTGYSITSGYSWHWIRQFPGNGLEWMGYIHSSGSTNYNPSLKSRISISRDTSKNQFFLKLSSVTAADTAVYYCAGYDDYFEYWGQGTTVTVSS
VL: DIQMTQSPSSLSASVGDRVTITCKASQNVGFNVAWYQQKPGKSPKALIYSASYRYSGVPSRFSGSGSGTDFTLTISSLQPEDFAEYFCQQYNWYPFTFGQGTKLEIKR
modifications: synthon XW on interchain Cys
B11: huAb13v1-SR (antibody, human IgG1, kappa, L234A L235A, V domains shown)
VH: EVQLQESGPGLVKPSETLSLTCAVTGYSITSGYSWHWIRQFPGNGLEWMGYIHSSGSTNYNPSLKSRISISRDTSKNQFFLKLSSVTAADTAVYYCAGYDDYFEYWGQGTTVTVSS
VL: DIQMTQSPSSLSASVGDRVTITCKASQNVGFNVAWYQQKPGKSPKALIYSASYRYSGVPSRFSGSGSGTDFTLTISSLQPEDFAEYFCQQYNWYPFTFGQGTKLEIKR
modifications: synthon SR on interchain Cys
B12: huAb13v1-TX (antibody, human IgG1, kappa, L234A L235A, V domains shown)
VH: EVQLQESGPGLVKPSETLSLTCAVTGYSITSGYSWHWIRQFPGNGLEWMGYIHSSGSTNYNPSLKSRISISRDTSKNQFFLKLSSVTAADTAVYYCAGYDDYFEYWGQGTTVTVSS
VL: DIQMTQSPSSLSASVGDRVTITCKASQNVGFNVAWYQQKPGKSPKALIYSASYRYSGVPSRFSGSGSGTDFTLTISSLQPEDFAEYFCQQYNWYPFTFGQGTKLEIKR
modifications: synthon TX on interchain Cys
B13: huAb13v1-KZ (antibody, human IgG1, kappa, L234A L235A, V domains shown)
VH: EVQLQESGPGLVKPSETLSLTCAVTGYSITSGYSWHWIRQFPGNGLEWMGYIHSSGSTNYNPSLKSRISISRDTSKNQFFLKLSSVTAADTAVYYCAGYDDYFEYWGQGTTVTVSS
VL: DIQMTQSPSSLSASVGDRVTITCKASQNVGFNVAWYQQKPGKSPKALIYSASYRYSGVPSRFSGSGSGTDFTLTISSLQPEDFAEYFCQQYNWYPFTFGQGTKLEIKR
modifications: synthon KZ on interchain Cys
B14: huAb13v1-YG (antibody, human IgG1, kappa, L234A L235A, V domains shown)
VH: EVQLQESGPGLVKPSETLSLTCAVTGYSITSGYSWHWIRQFPGNGLEWMGYIHSSGSTNYNPSLKSRISISRDTSKNQFFLKLSSVTAADTAVYYCAGYDDYFEYWGQGTTVTVSS
VL: DIQMTQSPSSLSASVGDRVTITCKASQNVGFNVAWYQQKPGKSPKALIYSASYRYSGVPSRFSGSGSGTDFTLTISSLQPEDFAEYFCQQYNWYPFTFGQGTKLEIKR
modifications: synthon YG on interchain Cys
B15: huAb13v1-SE (antibody, human IgG1, kappa, L234A L235A, V domains shown)
VH: EVQLQESGPGLVKPSETLSLTCAVTGYSITSGYSWHWIRQFPGNGLEWMGYIHSSGSTNYNPSLKSRISISRDTSKNQFFLKLSSVTAADTAVYYCAGYDDYFEYWGQGTTVTVSS
VL: DIQMTQSPSSLSASVGDRVTITCKASQNVGFNVAWYQQKPGKSPKALIYSASYRYSGVPSRFSGSGSGTDFTLTISSLQPEDFAEYFCQQYNWYPFTFGQGTKLEIKR
modifications: synthon SE on interchain Cys

This test deals with T1, Human full length B7-H3. Kind of test: cell-based or functional assay.
For B1, the “EC50 nM H1650 (in vitro tumor cell cytotoxicity)” value (“EC50 nM H1650” for short) was found to be 0.4 nM.
For B2 the value was 0.62 nM; for B3, 2.59 nM.
For B4 the value was 0.53 nM; for B5, 0.71 nM; for B6, 0.85 nM.
For B7 the value was 0.49 nM; for B8, 0.83 nM; for B9, 0.18 nM.
For B10, the “EC50 nM H1650” value came out at 0.86 nM.
For the molecule B11, the “EC50 nM H1650” value was 0.59 nM.
For B12 the value was 0.22 nM.
For B13 the value was 179 nM; for B14, 0.33 nM.
The value for B15 was 0.63 nM.
